Measurements from publication PMC6698660.

Target: His-tagged Sinorhizobium meliloti DnaN (β-sliding clamp) (Sinorhizobium meliloti)
Test: BLI

Row | kon [M⁻¹ s⁻¹] | Substance
1 | 44000 | MF-IEP104 (MF-IEP carrying substitution L104A) (natural protein)
2 | 82000 | MBP-Flag-IEP fusion protein (MF-IEP) of the RmInt1 intron, made in E. coli (natural protein)
